Where a chain is given by its changes, count along the chain named.
Tests used:
[1] = target: T1, Rv0792c G80D G80D (Mycobacterium tuberculosis) (UniProt O86331); assay: ALISA (plate-immobilized protein)
T1 sequence: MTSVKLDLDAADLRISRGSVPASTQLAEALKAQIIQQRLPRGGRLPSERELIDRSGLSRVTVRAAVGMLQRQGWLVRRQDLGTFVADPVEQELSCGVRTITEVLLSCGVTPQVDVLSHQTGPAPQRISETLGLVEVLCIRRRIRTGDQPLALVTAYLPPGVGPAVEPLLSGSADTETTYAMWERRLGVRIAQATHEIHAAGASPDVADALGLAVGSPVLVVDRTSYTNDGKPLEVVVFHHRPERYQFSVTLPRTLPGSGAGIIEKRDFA

[2] = target: T2, Rv0792c R49A R49A (Mycobacterium tuberculosis) (UniProt O86331); assay: ALISA (plate-immobilized protein)
T2 sequence: T1 sequence with R49A, D80G

TCTAGTCATTCGTCATAATCCCATCTGTTTCTTCCTCCTTCCGT [Rv0792c_2 aptamer (also Rv0729c_2)]
Kd [1]: 120 nM
Kd [2]: 74 nM
